Assay results reported in the supplement of paper PMC9233669.
Fewer inactive variants are shown than the library holds.

What was measured:
biotinyl-Phe-oxazolone = assay: self-aminoacylation, catalytic enhancement (BFO) (fold over background); higher = more active; k-Seq, kA / k0A0; sequences stand for … in GGGAAUGGAUCCACAUCUACGAAUUC…UUCACUGCAGACUUGACGAAGCUG
How it was run: (§1)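 Mutagenized RNA pools with a 21-nt variable region (0.43 μM) reacted with each biotinyl-aminoacyl-oxazolone at 2–1250 μM. Reactions ran in 50 μL HEPES/NaCl/KCl/MgCl2/CaCl2 buffer with 5% acetonitrile, pH 6.9–7.0, for 90 minutes at room temperature. Streptavidin-captured RNA was quantified by triplicate qPCR and Illumina sequencing, and per-sequence fraction reacted was fit to a pseudo-first-order model with 1000 bootstraps. Catalytic enhancement is median kA divided by the uncatalyzed rate, the low-activity peak of a bimodal Gaussian fit.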

biotinyl-Trp-oxazolone = assay: self-aminoacylation, catalytic enhancement (BWO) (fold over background); higher = more active; k-Seq, kA / k0A0; sequences stand for … in GGGAAUGGAUCCACAUCUACGAAUUC…UUCACUGCAGACUUGACGAAGCUG
How it was run: as §1

biotinyl-Leu-oxazolone = assay: self-aminoacylation, catalytic enhancement (BLO) (fold over background); higher = more active; k-Seq, kA / k0A0; sequences stand for … in GGGAAUGGAUCCACAUCUACGAAUUC…UUCACUGCAGACUUGACGAAGCUG
How it was run: as §1

biotinyl-Ile-oxazolone = assay: self-aminoacylation, catalytic enhancement (BIO) (fold over background); higher = more active; k-Seq, kA / k0A0; sequences stand for … in GGGAAUGGAUCCACAUCUACGAAUUC…UUCACUGCAGACUUGACGAAGCUG
How it was run: as §1

biotinyl-Met-oxazolone = assay: self-aminoacylation, catalytic enhancement (BMO) (fold over background); higher = more active; k-Seq, kA / k0A0; sequences stand for … in GGGAAUGGAUCCACAUCUACGAAUUC…UUCACUGCAGACUUGACGAAGCUG
How it was run: as §1

biotinyl-Val-oxazolone = assay: self-aminoacylation, catalytic enhancement (BVO) (fold over background); higher = more active; k-Seq, kA / k0A0; sequences stand for … in GGGAAUGGAUCCACAUCUACGAAUUC…UUCACUGCAGACUUGACGAAGCUG
How it was run: as §1

Sequence	self-aminoacylation (biotinyl-Phe-oxazolone)	self-aminoacylation (biotinyl-Trp-oxazolone)	self-aminoacylation (biotinyl-Leu-oxazolone)	self-aminoacylation (biotinyl-Ile-oxazolone)	self-aminoacylation (biotinyl-Met-oxazolone)	self-aminoacylation (biotinyl-Val-oxazolone)
CCCCACUUCAAGCAUUCGGUC [Fam1B.1 aminoacylation ribozyme variant]	10.9	5.46	2.48	2.65	2.61	3.06
CCCCACUUCAAGCUAUCGGUC [Fam1B.1 aminoacylation ribozyme variant]	2.16	2.01	1.12	1.42	1.05	1.71
CCCCACUUCAAGGAAUCGGUC [Fam1B.1 aminoacylation ribozyme variant]	11.3	13	2.62	2.4	2.33	2.15
CCCCACUUCCAGCAAUCGGUC [Fam1B.1 aminoacylation ribozyme variant]	1.79	2.16	2.35	2.18	1.78	2.48
CCCCCCUUCAAGCAAUCGGUC [Fam1B.1 aminoacylation ribozyme variant]	80.1	44.8	3.18	1.88	2	2.67
CCGCACUUCAAGCAAACGGUC [Fam1B.1 aminoacylation ribozyme variant]	0.946	1.04	0.684	0.937	0.724	1.3
CCGCACUUCAAGCAACCGGUC [Fam1B.1 aminoacylation ribozyme variant]	1.29	1.56	1.1	1.47	1.47	1.54
CCGCACUUCAAGCAAGCGGUC [Fam1B.1 aminoacylation ribozyme variant]	1.43	2	1.31	1.65	1.43	1.67
CCGCACUUCAAGCAAUCGCUC [Fam1B.1 aminoacylation ribozyme variant]	6.76	2.73	2.14	1.93	1.8	2.73
CCGCACUUCAAGCAAUCGGGC [Fam1B.1 aminoacylation ribozyme variant]	2.26	2.11	1.69	1.92	1.35	2.52
CCGCACUUCAAGCUAUCGGUC [Fam1B.1 aminoacylation ribozyme variant]	0.936	1.19	0.84	1.15	0.919	1.42
CCGUUUGCUAAUAGUCGCAAG [Fam3.1 aminoacylation ribozyme variant]	1.94	1.1	1.02	1.22	0.83	0.972
CCUACCCUGGUCAUCGAGUGA [Fam2.1 aminoacylation ribozyme variant]	49.8	9.17	7.58	3.88	6.64	4.14
CCUCACCUAGGUCAUCGGGUG [Fam2.2 aminoacylation ribozyme variant]	16.2	5.46	4.79	3.22	3.92	5.35
CCUCACUUCAACCAAUCGGUC [Fam1B.1 aminoacylation ribozyme variant]	57.5	27.6	1.84	1.28	1.35	1.27
CCUCACUUCAAGCAAUAGGUC [Fam1B.1 aminoacylation ribozyme variant]	1.26	0.622	0.553	0.573	0.468	0.592
CCUCACUUCAAGCAAUCAGUC [Fam1B.1 aminoacylation ribozyme variant]	21.2	6.56	1.01	0.781	0.83	0.921
CCUCACUUCAAGCAAUCCGUC [Fam1B.1 aminoacylation ribozyme variant]	1.94	0.756	0.736	0.935	0.613	0.873
CCUCACUUCAAGCAAUCGUUC [Fam1B.1 aminoacylation ribozyme variant]	1.29	0.754	0.604	0.664	0.473	0.637
CCUCACUUCAAGCAUUCGGUC [Fam1B.1 aminoacylation ribozyme variant]	1.36	1.37	1.16	1.3	1.14	1.43
CCUCACUUCAAGCGAUCGGUC [Fam1B.1 aminoacylation ribozyme variant]	2.38	2.72	1.53	1.19	1.27	1.29

Sequence	self-aminoacylation (biotinyl-Phe-oxazolone)	self-aminoacylation (biotinyl-Trp-oxazolone)	self-aminoacylation (biotinyl-Leu-oxazolone)	self-aminoacylation (biotinyl-Ile-oxazolone)	self-aminoacylation (biotinyl-Met-oxazolone)	self-aminoacylation (biotinyl-Val-oxazolone)
CCUCACUUCAAGUAAUCGGUC [Fam1B.1 aminoacylation ribozyme variant]	14.2	8.32	1.17	1	0.949	0.821
CGACACUGCAAGCAAUCGGUC [Fam1B.1 aminoacylation ribozyme variant]	1.4	1.82	1.37	1.52	1.26	1.47
CGACACUUCAAGCAAGCGGUC [Fam1B.1 aminoacylation ribozyme variant]	0.837	1.21	1.23	1.09	1.27	0.939
CGACACUUCAAGCAAUCAGUC [Fam1B.1 aminoacylation ribozyme variant]	13.2	4.25	0.903	0.815	0.774	0.822
CGACACUUCAAGCAAUCGCUC [Fam1B.1 aminoacylation ribozyme variant]	2.06	2.2	2.26	2.1	1.64	1.96
CGACACUUCAAGCCAUCGGUC [Fam1B.1 aminoacylation ribozyme variant]	0.589	1.9	1.17	1.3	1.17	1.59
CGACAGUUCAAGCAAUCGGUC [Fam1B.1 aminoacylation ribozyme variant]	2.42	2.43	1.45	1.48	1.19	1.53
CGACGCUUCAAGCAAUCGGUC [Fam1B.1 aminoacylation ribozyme variant]	22.7	16.7	1.58	1.2	1.07	1.35
CGACUUCAAACACUCGGUCUG [Fam1A.1 aminoacylation ribozyme variant]	2.7	2.31	1.39	1.33	1.61	1.52
CGACUUCAACCAAUCGGUCUG [Fam1A.1 aminoacylation ribozyme variant]	64.2	31.6	2.26	1.56	1.35	1.42
CGCCUUCAAACAAUCGGUCUG [Fam1A.1 aminoacylation ribozyme variant]	146	55.5	3.13	1.59	1.94	1.8
CGGCUUCAAACAAUCGGUCUG [Fam1A.1 aminoacylation ribozyme variant]	106	45.1	2.46	1.41	1.62	1.49
CUAACCCUGGUCAUCGAGUGA [Fam2.1 aminoacylation ribozyme variant]	11.8	9.47	8.32	4.07	8.98	4.44
CUAACUCAAACAAUCGGUCUG [Fam1A.1 aminoacylation ribozyme variant]	3.32	1.24	0.716	0.761	0.648	0.742
CUAAUUCAAAAAAUCGGUCUG [Fam1A.1 aminoacylation ribozyme variant]	1.9	1.18	0.727	0.751	0.636	0.668
CUAAUUCAAACAACCGGUCUG [Fam1A.1 aminoacylation ribozyme variant]	0.916	0.69	0.724	0.947	0.958	0.754
CUAAUUCAAACAAGCGGUCUG [Fam1A.1 aminoacylation ribozyme variant]	0.798	0.632	0.847	0.874	1.1	0.972
CUAAUUCAAACAAUAGGUCUG [Fam1A.1 aminoacylation ribozyme variant]	1.11	0.666	0.706	0.773	0.704	0.77
CUAAUUCAAACAAUCUGUCUG [Fam1A.1 aminoacylation ribozyme variant]	1.1	0.748	0.525	0.784	0.64	0.665
CUAAUUCAAACAUUCGGUCUG [Fam1A.1 aminoacylation ribozyme variant]	0.983	1.02	1.02	1.05	1.03	0.979
CUAAUUCAAACGAUCGGUCUG [Fam1A.1 aminoacylation ribozyme variant]	0.8	0.656	0.72	0.689	0.696	0.648
